According to patent publication US5567433A, “Liposome preparation and material encapsulation method” (Amgen Inc., priority 1995, dated 1996):

Assays:
[1] = In vivo release after subcutaneous injection into rats; set-up: species or system Sprague-Dawley rats; conditions: either liposome composition
Experimental: Liposomes composed of either DPPC or DMPG:DSPC:CHOL (1:4:5 molar) were prepared substantially in accordance with Method 4, above, to contain either ^125 I-tyraminyl inulin (at a final specific activity of 0.4×10^6 dpm/ml) or ^125 I-rhG-CSF (at a final specific activity of 1×10^6 dpm/ml). (See: ^125 I-labeled Inulin: A convenient marker for deposition of liposome contents in vivo. Sommerman, E. F., Pritchard, P. H. and Cullis, P. R. Biochem Biophys Res Coramerc Vol. 122(1), 319-324; 1984.) The final lipid composition was 30 mM. The injection site was marked. At various times after injection, the rats were sacrificed and the injection site was excised and counted for remaining ^125 I. Percent release was defined as %Release=100(1-DPMt /DPMo), where DPMt is the dpm remaining at the site at time t, and DPMo is the initial dpm injected (t=0).

[2] = Encapsulation of various protein therapeutics and oligonucleotides using Method 4; format: physicochemical; conditions: up to; present invention
Experimental: Lipid films, prepared as described in Method 1, were hydrated in water and sonicated. The sonicated dispersions were then subjected to 3-5 cycles of freezing (dry ice/acetone) and thawing (37° C). The dispersions were freeze dried and ground as in Method 2 to form a lipid powder. The powder was subsequently hydrated in G-CSF, and the liposome-encapsulated material was microfluidized as described in Method 1. Unencapsulated G-CSF was separated from encapsulated G-CSF as described in Method 2.
The lipid samples were prepared, sonicated and subjected to freeze/thaw cycles as described in Method 3. Prior to dehydrating the sample, D-mannitol was added (1:1 weight ratio to lipid) as a bulking agent. The samples were freeze-dried and rehydrated, upon use, as described in Method 3. Hydration and microfluidization was carried out as described in Method 1. The samples were then dialyzed as described in Method 2.

G-CSF = experiment: Reverse phase HPLC of encapsulated G-CSF; format: physicochemical, human; conditions: C4 reverse phase HPLC
Excerpt: Biologically active material encapsulated in accordance with Method 4, above, was also subjected to reverse phase high pressure liquid chromatography (HPLC) to determine whether liposome-encapsulation led to structural changes in the encapsulated material. For example, G-CSF alone or encapsulated in DMPG:DSPC:CHOL (1:4:5) liposomes was examined by C4 reverse phase HPLC under the following conditions:
Buffer A: 0.1% trifluoroacetic acid in water
Buffer B: 0.1% trifluoroacetic acid in 90% acetonitrile
Gradient: 0-90% B in 60 minutes
Flow rate: 0.8 milliliter/minute
Detection: 220 nanometers
Thirty micrograms of G-CSF was loaded per run. Liposomes were lysed in 40% methanol for 30 minutes at 37° C. prior to chromatography.

| Molecule | leakage of inulin or G-CSF [1] | Encapsulation of input [2] | material destruction or aggregation upon encapsulation (G-CSF) | structural integrity of G-CSF released from liposomes (G-CSF; liposomes lysed in 40% methanol) | Recovery (G-CSF; 30 μg G-CSF injected) |
| --- | --- | --- | --- | --- | --- |
| inulin [reference compound] | No significant difference | – | – | – | – |
| G-CSF: recombinant human granulocyte colony stimulating factor (protein, UniProt P09919 31-207, looked up) Granulocyte …: TPLGPASSLPQSFLLKCLEQVRKIQGDGAALQEKLVSECATYKLCHPEELVLLGHSLGIPWAPLSSCPSQALQLAGCLSQLHSGLFLYQGLLQALEGISPELGPTLDTLQLDVADFATTIWQQMEELGMAPALQPTQGAMPAFASAFQRRAGGVLVASHLQSFLEVSYRVLRHLAQP | No significant difference | 80-90% | no material destruction or aggregation | structurally identical to G-CSF which was never encapsulated | 100% |
